Source: publication PMC9132103

How the values were obtained:
[1] = target: human IL-10Rβ extracellular domain (residues 20-220), biotinylated, from Hi5 cells (human) (UniProt Q08334)
[2] = target: Clone 5.1 (super-10), affinity-matured mono-IL-10 clone (UniProt P22301)
[3] = target: Clone 5.1 (super-10) in the presence of IL-10Rα ECD (UniProt P22301)

Chain of human IL-10Rβ extracellular domain (residues 20-220), biotinylated, from Hi5 cells (Q08334 20-220): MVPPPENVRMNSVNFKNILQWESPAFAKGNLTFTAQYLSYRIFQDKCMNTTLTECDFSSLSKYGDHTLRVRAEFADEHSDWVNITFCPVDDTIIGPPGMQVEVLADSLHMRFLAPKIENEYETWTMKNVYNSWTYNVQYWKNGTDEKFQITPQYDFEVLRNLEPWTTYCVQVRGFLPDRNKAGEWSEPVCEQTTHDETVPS
Chain of human IL-10Rβ extracellular domain (residues 20-220), biotinylated, from Hi5 cells (human) (Q08334 20-220): as above

Row | phospho-STAT3 by flow cytometry, YT-1 cells, relative to WT IL-10 [1] | Kd [2] | Kd [3] | Substance
1 | 50% |  |  | IL-10 D25K (from UniProt P22301 19-178) (ligand)
2 | 50% |  |  | IL-10 D25A/E96A (10-DE) (from UniProt P22301 19-178) (ligand)
3 |  | 70 nM | 30 nM | human IL-10Rβ extracellular domain (residues 20-220), biotinylated, from Hi5 cells (from UniProt Q08334 20-220) (receptor)
